Where two headings read alike, the source gives them in different places.
What was measured:
Assay in all cases: two-hybrid library CCmax;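 also: natural log of median RNA to DNA barcode read ratio; higher means stronger binding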
[1] = molecular target: T1, 4H930-AA; settings: mean of both orientations
T1 chain: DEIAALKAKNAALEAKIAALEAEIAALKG

[2] = molecular target: T2, 4H485-AA; settings: mean of both orientations
T2 chain: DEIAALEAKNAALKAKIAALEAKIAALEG

[3] = molecular target: T3, 4H452-AA; settings: mean of both orientations
T3 chain: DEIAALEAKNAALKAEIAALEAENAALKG

[4] = molecular target: T4, 4H891-AA; settings: mean of both orientations
T4 chain: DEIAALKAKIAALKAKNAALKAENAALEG

[5] = molecular target: T5, 4H2732-AA; settings: mean of both orientations
T5 chain: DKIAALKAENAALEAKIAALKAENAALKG

[6] = molecular target: T6, 4H2865-AA
T6 chain: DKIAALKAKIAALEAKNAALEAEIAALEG

[7] = molecular target: T7, 4H249-AA
T7 chain: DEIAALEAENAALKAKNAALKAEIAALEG

[8] = molecular target: T8, 4H2389-AA; settings: mean of both orientations
T8 chain: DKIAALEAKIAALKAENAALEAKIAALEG

[9] = molecular target: T9, 4H3753-AA; settings: mean of both orientations
T9 chain: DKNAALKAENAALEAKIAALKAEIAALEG

[10] = molecular target: T10, 4H1864-AA; settings: mean of both orientations
T10 chain: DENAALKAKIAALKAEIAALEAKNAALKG

[11] = molecular target: T11, 4H174-AA; settings: mean of both orientations
T11 chain: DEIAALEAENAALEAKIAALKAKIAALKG

[12] = molecular target: T12, O13-AA; settings: mean of both orientations
T12 chain: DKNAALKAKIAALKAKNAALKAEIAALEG

[13] = molecular target: T13, O14-AA; settings: mean of both orientations
T13 chain: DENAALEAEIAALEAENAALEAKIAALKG

[14] = molecular target: T14, O11-AA; settings: mean of both orientations
T14 chain: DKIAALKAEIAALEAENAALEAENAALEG

[15] = molecular target: T15, 4H3049-AA; settings: mean of both orientations
T15 chain: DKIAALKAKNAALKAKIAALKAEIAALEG

[16] = molecular target: T16, 4H3782-AA; settings: mean of both orientations
T16 chain: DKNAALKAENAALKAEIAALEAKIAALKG

[17] = molecular target: T17, 4H2903-AA; settings: mean of both orientations
T17 chain: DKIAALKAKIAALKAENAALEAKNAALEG

[18] = molecular target: T18, 4H341-AA; settings: mean of both orientations
T18 chain: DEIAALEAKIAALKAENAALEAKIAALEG

[19] = molecular target: T19, 4H2580-AA; settings: mean of both orientations
T19 chain: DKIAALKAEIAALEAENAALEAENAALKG

[20] = molecular target: T20, 4H3129-AA; settings: mean of both orientations
T20 chain: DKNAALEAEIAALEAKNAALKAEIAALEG

[21] = molecular target: T21, 4H483-AA; settings: mean of both orientations
T21 chain: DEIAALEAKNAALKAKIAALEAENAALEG

[22] = molecular target: T22, 4H340-AA
T22 chain: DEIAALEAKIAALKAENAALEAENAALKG

[23] = molecular target: T23, 4H2907-AA; settings: mean of both orientations
T23 chain: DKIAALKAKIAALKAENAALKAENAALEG

[24] = molecular target: T24, 4H3588-AA; settings: mean of both orientations
T24 chain: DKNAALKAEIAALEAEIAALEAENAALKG

[25] = molecular target: T25, 4H2620-AA; settings: mean of both orientations
T25 chain: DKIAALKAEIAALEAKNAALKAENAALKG

[26] = molecular target: T26, 4H2648-AA; settings: mean of both orientations
T26 chain: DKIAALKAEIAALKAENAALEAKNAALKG

[27] = molecular target: T27, 4H3162-AA; settings: mean of both orientations
T27 chain: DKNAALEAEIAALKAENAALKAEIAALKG

[28] = molecular target: T28, 4H2553-AA
T28 chain: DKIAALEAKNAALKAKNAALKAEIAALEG

[29] = molecular target: T29, 4H1385-AA
T29 chain: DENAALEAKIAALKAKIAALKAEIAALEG

[30] = molecular target: T30, 4H3343-AA; settings: mean of both orientations
T30 chain: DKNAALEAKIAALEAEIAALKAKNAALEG

[31] = molecular target: T31, 4H2754-AA; settings: mean of both orientations
T31 chain: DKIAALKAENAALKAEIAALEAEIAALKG

[32] = molecular target: T32, 4H881-AA; settings: mean of both orientations
T32 chain: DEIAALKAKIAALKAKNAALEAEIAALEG

[33] = molecular target: T33, 4H1594-AA; settings: mean of both orientations
T33 chain: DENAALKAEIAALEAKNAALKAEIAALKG

[34] = molecular target: T34, 4H2837-AA
T34 chain: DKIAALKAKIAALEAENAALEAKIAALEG

[35] = molecular target: T35, 4H2354-AA; settings: mean of both orientations
T35 chain: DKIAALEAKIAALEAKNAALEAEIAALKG

[36] = molecular target: T36, 4H2949-AA; settings: mean of both orientations
T36 chain: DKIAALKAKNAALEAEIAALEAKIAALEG

[37] = molecular target: T37, 4H3655-AA; settings: mean of both orientations
T37 chain: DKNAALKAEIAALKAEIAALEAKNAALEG

[38] = molecular target: T38, 4H234-AA; settings: mean of both orientations
T38 chain: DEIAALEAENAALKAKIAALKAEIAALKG

[39] = molecular target: T39, 4H429-AA; settings: mean of both orientations
T39 chain: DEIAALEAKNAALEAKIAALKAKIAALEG

[40] = molecular target: T40, 4H2190-AA; settings: mean of both orientations
T40 chain: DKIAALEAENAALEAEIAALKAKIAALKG

[41] = molecular target: T41, 4H1401-AA
T41 chain: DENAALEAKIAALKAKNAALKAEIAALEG

[42] = molecular target: T42, 4H1388-AA; settings: mean of both orientations
T42 chain: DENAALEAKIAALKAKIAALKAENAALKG

[43] = molecular target: T43, 4H1579-AA; settings: mean of both orientations
T43 chain: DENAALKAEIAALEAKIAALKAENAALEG

B1: 4H2253-AA (peptide)
chain: DKIAALEAENAALKAEIAALKAKIAALEG
interaction score [1]: -1.04
interaction score [2]: -0.48
interaction score [3]: -1.74
interaction score [4]: -1.7
interaction score [5]: -1.3
interaction score ([6]; mean of both orientations): -1.42
interaction score ([7]; mean of both orientations): -1.56
interaction score [8]: -1.29
interaction score [9]: -1.13

B2: 4H1626-AA (peptide)
chain: DENAALKAEIAALKAENAALKAEIAALKG
interaction score [1]: -1.25
interaction score [2]: -1.46
interaction score [4]: -1.64
interaction score [10]: -1.36
interaction score [11]: -1.63
interaction score ([6]; mean of both orientations): -1.68
interaction score ([7]; mean of both orientations): -1.39
interaction score [8]: -1.4
interaction score [9]: -1.54

B3: 4H171-AA (peptide)
chain: DEIAALEAENAALEAKIAALKAENAALEG
interaction score [1]: -1.29
interaction score [2]: -0.423
interaction score [4]: -0.295
interaction score [12]: 2.21
interaction score [10]: 0.435
interaction score [13]: -1.07
interaction score [14]: -1.82
interaction score [11]: -1.16
interaction score [6]: -0.997
interaction score [8]: -1.07
interaction score [9]: -1.25

B4: 4H1257-AA (peptide)
chain: DENAALEAENAALKAKIAALKAEIAALEG
interaction score [15]: -0.309
interaction score [16]: 2.21
interaction score [17]: -1.62
interaction score [18]: -1.24
interaction score [19]: -1.12
interaction score [20]: -1.9
interaction score [21]: -1.91
interaction score ([7]; mean of both orientations): -1.46

B5: 4H249-AA (peptide)
chain: DEIAALEAENAALKAKNAALKAEIAALEG
interaction score [15]: -1.71
interaction score [16]: 1.43
interaction score [3]: -1.53
interaction score [5]: -0.302
interaction score [17]: -0.757
interaction score [18]: 0.538
interaction score [19]: -0.825
interaction score [20]: -2.01
interaction score [21]: -1.76
interaction score [7]: -0.781

B6: 4H1845-AA (peptide)
chain: DENAALKAKIAALEAKNAALEAKIAALEG
interaction score ([22]; mean of both orientations): -1.97
interaction score [23]: -1.92
interaction score [24]: -1.56
interaction score [16]: -1.6
interaction score [25]: -1.86
interaction score [26]: -1.59
interaction score [27]: -1.73
interaction score ([28]; mean of both orientations): -1.84

B7: 4H1064-AA (peptide)
chain: DENAALEAEIAALEAKIAALEAKNAALKG
interaction score [15]: 0.863
interaction score [16]: -0.855
interaction score [17]: 1.45
interaction score [18]: -1.26
interaction score [19]: 1.19
interaction score [20]: -1.71
interaction score [21]: -0.857
interaction score ([7]; mean of both orientations): -2.06

B8: 4H1350-AA (peptide)
chain: DENAALEAKIAALKAEIAALEAKIAALKG
interaction score [15]: 0.379
interaction score ([29]; mean of both orientations): 2.18
interaction score [12]: 0.34
interaction score [13]: -0.655
interaction score [14]: -0.612

B9: 4H1153-AA (peptide)
chain: DENAALEAENAALEAEIAALEAEIAALEG
interaction score [30]: -0.81
interaction score [31]: -0.638
interaction score [32]: -1.26
interaction score [22]: -1.49
interaction score [23]: -1.67
interaction score [24]: -1.29
interaction score [33]: -1.13
interaction score ([34]; mean of both orientations): -1.49
interaction score [35]: -1.55
interaction score [25]: -1.41
interaction score [36]: -0.947
interaction score [26]: -1.19
interaction score [37]: -0.01
interaction score [27]: -1.68
interaction score [38]: 0.621
interaction score ([28]; mean of both orientations): -0.371
interaction score [39]: 0.137
interaction score [40]: -0.187
interaction score ([41]; mean of both orientations): -0.873
interaction score [42]: 0.435

B10: 4H3606-AA (peptide)
chain: DKNAALKAEIAALEAENAALEAKIAALKG
interaction score [32]: 2.32
interaction score [37]: -1.72
interaction score [39]: 0.643

B11: 4H1385-AA (peptide)
chain: DENAALEAKIAALKAKIAALKAEIAALEG
interaction score [15]: -0.544
interaction score [1]: -1.18
interaction score [2]: -0.799
interaction score [29]: 2.06
interaction score [43]: -0.0818
interaction score [4]: -1.56
interaction score [12]: -1.62
interaction score [10]: 0.56
interaction score [13]: 2.08
interaction score [14]: 0.214
interaction score [11]: 0.819
interaction score ([6]; mean of both orientations): -0.751
interaction score [8]: -1.15
interaction score [9]: -0.82

B12: 4H1401-AA (peptide)
chain: DENAALEAKIAALKAKNAALKAEIAALEG
interaction score [30]: -1.44
interaction score [31]: -1.71
interaction score [32]: -0.879
interaction score ([22]; mean of both orientations): -1.93
interaction score [23]: -1.63
interaction score [24]: -0.275
interaction score [33]: -0.109
interaction score ([34]; mean of both orientations): 1.61
interaction score [35]: -1.3
interaction score [25]: -1.63
interaction score [36]: 0.393
interaction score [26]: 0.46
interaction score [37]: -1.48
interaction score [27]: -0.375
interaction score [38]: 0.335
interaction score [28]: -1.65
interaction score [39]: 0.239
interaction score [40]: 1.09
interaction score [41]: -1.49

B13: 4H2165-AA (peptide)
chain: DKIAALEAEIAALKAKNAALEAKIAALEG
interaction score [30]: -0.847
interaction score [31]: -0.0505
interaction score [32]: 0.00404
interaction score [34]: 0.959
interaction score [35]: -1.76
interaction score [3]: -1.51
interaction score [36]: -1.21
interaction score [5]: -1.36
interaction score [37]: -1.37
interaction score [38]: -1.27
interaction score [39]: -1.87
interaction score [40]: -1.12
interaction score ([7]; mean of both orientations): -1.16
